Assay results from article PMC7618119.

Tests used:
[1] = target: human μ-opioid receptor-RlucII (human) (UniProt P35372)
[2] = target: rat HA-μ-opioid receptor (rat) (UniProt P33535)
[3] = target: human μ-opioid receptor (AtT20FlpInMOR cells) (human) (UniProt P35372)

Chain of UniProt P33535 (P33535 whole entry): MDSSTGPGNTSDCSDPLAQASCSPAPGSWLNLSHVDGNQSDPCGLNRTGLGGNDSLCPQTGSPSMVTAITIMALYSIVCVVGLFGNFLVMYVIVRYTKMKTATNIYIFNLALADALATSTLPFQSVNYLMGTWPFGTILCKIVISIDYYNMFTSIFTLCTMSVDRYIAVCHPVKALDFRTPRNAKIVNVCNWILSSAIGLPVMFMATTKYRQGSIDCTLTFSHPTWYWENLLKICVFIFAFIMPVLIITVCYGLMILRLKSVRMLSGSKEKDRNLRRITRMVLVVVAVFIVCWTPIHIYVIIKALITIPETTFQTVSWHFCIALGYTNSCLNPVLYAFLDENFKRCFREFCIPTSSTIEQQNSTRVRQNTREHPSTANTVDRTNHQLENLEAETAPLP

## [D-Ala^2, N-MePhe^4, Gly-ol]-enkephalin (peptide)
[1]
  β-arrestin 2 translocation BRET (μ-opioid receptor-RlucII with β-arrestin-2-GFP) in HEK293T cells, agonist pEC50, first set (log M (printed under pEC50)): -6.12
  β-arrestin 2 translocation BRET (μ-opioid receptor-RlucII with β-arrestin-2-GFP) in HEK293T cells, agonist pEC50, second set (log M (printed under pEC50)): -6.33
[2]
  Gi protein activation BRET (decrease of BRET between Gαi1-RlucII and GFP10-Gγ2) in HEK293T cells, agonist pEC50, first set (log M (printed under pEC50)): -6.82
  Gi protein activation BRET (decrease of BRET between Gαi1-RlucII and GFP10-Gγ2) in HEK293T cells, agonist pEC50, second set (log M (printed under pEC50)): -6.99
[3]
  apparent rate constant of dissociation (koff): decay of the membrane potential response to the EC75 concentration after naloxone 10 μM, AtT20 cells: > 0.126 s⁻¹
  apparent rate of dissociation (t1/2): decay of the membrane potential response to the EC75 concentration after naloxone 10 μM, AtT20 cells: < 5.5 s
  membrane potential dye fluorescence (hyperpolarisation) in μ-opioid receptor-expressing AtT20 cells, agonist pEC50, first set of experiments (log M (printed under pEC50)): -7.98
  membrane potential dye fluorescence (hyperpolarisation) in μ-opioid receptor-expressing AtT20 cells, agonist pEC50, second set of experiments (log M (printed under pEC50)): -8.12
